Non-standard residues stand in square brackets, D forms with d. QSY‑7 = quencher dye attached to Cys via maleimide; Rhodamine green = fluorophore at the N-terminus; βAla = NCCC(=O)O
Key:
[1] = target: T1, human SEP (Homo sapiens, UniProt Q495T6); assay: Sensitivity of human SEP to inhibitors; format: biochemical
T1 construct: with the full length cDNA cloned into the pCMV6-XL4 vector; made in house; host or cells: CHO cells, transient transfection; dialysed culture medium
T1 sequence (Q495T6 75-779 limits assumed): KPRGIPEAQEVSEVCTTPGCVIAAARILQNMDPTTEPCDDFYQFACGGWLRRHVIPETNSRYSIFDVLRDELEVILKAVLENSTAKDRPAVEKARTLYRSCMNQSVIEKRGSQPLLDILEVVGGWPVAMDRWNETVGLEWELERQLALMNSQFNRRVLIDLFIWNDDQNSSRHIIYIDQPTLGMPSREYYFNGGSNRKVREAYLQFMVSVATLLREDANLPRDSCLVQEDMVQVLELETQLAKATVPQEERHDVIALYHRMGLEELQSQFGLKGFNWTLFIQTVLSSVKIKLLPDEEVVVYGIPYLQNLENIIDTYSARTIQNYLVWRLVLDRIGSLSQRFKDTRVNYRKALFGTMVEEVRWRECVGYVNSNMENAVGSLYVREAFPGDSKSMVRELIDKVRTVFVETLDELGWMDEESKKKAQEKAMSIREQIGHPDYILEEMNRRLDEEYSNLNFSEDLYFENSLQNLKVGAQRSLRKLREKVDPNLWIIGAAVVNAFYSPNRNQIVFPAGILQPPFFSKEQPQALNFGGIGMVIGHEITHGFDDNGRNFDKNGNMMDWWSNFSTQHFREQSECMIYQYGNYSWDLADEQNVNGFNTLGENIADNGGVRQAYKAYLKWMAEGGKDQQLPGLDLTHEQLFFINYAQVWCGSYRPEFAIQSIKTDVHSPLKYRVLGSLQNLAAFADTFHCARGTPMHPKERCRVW
Protocol: The enzymatic (proteolytic) activity of human SEP protein can be measured in an assay involving, for example, mixing a sample of the human SEP enzyme with a substrate peptide in a buffer solution (for example 50 mM HEPES; pH 7.4), incubating the mixture for a period of time (such as 1-3 hours) enough for human SEP to act to cleave a measurable portion of the peptide substrate to a product at a temperature suitable for SEP activity (typically 30-37° C.).
The effect of candidate human SEP inhibitor compounds or control test compounds such as phosphoramidon and thiorphan that may alter the activity of human SEP can be measured in this type of assay by including them in the initial mixture at a range of suitable test concentrations, typically 0.1 nM to 50 µM.
To determine the IC50 of SEP inhibitors (SEPi; for example, phosphoramidon), multiple SEP assays are performed as described above with a range of test concentrations of inhibitor included in the 50 μl of DMSO solution (made by appropriate dilution of a 10 mM 100% DMSO stock of inhibitor with 4% DMSO/50 mM HEPES pH7.4.). Using a suitable standard graph fitting computer program, a sigmoidal dose response curve is fitted to a plot of log inhibitor concentration versus MaxV (or % inhibition or % activity). The IC50 is calculated as the inhibitor concentration causing 50% maximal inhibition. […]

[2] = target: T2, mouse SEP (Mus musculus, UniProt Q9JLI3); settings: cited from earlier work
T2 sequence (Q9JLI3 1-765): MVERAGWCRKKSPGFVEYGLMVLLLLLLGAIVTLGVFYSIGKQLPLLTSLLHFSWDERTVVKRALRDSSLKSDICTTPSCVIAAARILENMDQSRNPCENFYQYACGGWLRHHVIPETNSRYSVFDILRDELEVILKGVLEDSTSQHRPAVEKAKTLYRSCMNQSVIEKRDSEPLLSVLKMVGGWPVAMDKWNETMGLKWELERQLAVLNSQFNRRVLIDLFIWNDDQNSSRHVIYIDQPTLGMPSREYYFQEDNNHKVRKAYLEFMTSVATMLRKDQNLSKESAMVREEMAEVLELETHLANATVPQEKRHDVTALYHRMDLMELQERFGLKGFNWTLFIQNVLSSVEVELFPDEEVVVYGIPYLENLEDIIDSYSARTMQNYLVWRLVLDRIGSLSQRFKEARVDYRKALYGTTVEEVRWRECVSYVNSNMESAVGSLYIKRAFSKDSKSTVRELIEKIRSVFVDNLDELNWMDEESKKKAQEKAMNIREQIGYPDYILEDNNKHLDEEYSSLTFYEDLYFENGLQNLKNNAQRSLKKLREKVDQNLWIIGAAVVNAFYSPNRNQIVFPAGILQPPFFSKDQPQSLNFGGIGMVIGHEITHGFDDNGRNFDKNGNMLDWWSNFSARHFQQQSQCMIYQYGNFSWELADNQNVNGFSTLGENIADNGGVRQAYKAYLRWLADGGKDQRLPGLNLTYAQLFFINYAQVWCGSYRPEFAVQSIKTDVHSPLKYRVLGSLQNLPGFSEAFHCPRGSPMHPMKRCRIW

[3] = target: T3, NEP enzyme (Homo sapiens, UniProt P08473); assay: NEP FRET assay (384 well, substrate CP4); format: biochemical; settings: steady state kinetics of NEP with the peptide substrate
T3 construct: made in house; host or cells: Pichia pastoris

[4] = target: T4, Rhodamine green-Gly-Gly-dPhe-Leu-Arg-Arg-Val-Cys(QSY-7)-betaAla-NH2
T4 chain: GGFLRRVCA

T3 sequence (P08473 whole entry): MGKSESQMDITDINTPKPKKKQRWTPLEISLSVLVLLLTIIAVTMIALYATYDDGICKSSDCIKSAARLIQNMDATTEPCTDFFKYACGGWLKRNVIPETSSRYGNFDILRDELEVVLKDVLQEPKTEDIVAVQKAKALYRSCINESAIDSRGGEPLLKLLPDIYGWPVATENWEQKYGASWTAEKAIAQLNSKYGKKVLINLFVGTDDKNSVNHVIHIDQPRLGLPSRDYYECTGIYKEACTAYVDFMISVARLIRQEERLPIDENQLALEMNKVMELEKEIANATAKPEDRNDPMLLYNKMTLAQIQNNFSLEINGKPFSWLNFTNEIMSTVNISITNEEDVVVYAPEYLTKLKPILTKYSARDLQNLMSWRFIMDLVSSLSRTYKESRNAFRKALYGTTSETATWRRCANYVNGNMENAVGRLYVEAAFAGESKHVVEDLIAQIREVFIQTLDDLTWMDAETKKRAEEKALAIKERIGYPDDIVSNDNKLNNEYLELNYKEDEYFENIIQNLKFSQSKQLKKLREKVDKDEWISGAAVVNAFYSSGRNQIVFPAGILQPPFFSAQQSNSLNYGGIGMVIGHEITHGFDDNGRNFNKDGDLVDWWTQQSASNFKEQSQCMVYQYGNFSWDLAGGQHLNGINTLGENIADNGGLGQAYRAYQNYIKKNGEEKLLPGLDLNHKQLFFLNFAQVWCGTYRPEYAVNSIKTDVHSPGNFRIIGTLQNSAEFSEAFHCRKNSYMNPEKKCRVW

For `CC(C)C[C@H](NP(=O)(O)O[C@@H]1O[C@@H](C)[C@H](O)[C@@H](O)[C@H]1O)C(=O)N[C@@H](Cc1c[nH]c2ccccc12)C(=O)O` [phosphoramidon], the “sensitivity of enzyme to inhibitor” value [1] is listed as “sensitive” and the “sensitivity of enzyme to inhibitor” value [2] is listed as “sensitive”.

For `O=C(O)CNC(=O)C(CS)Cc1ccccc1` (stereo not drawn) [thiorphan], the “sensitivity of enzyme to inhibitor” value [1] is given as “sensitive” and the “sensitivity of enzyme to inhibitor” value [2] is given as “sensitive”.

Molecule “Rhodamine green-Gly-Gly-dPhe-Leu-Arg-Arg-Val-Cys(QSY™-7)-βAla-NH2 ({Rhodamine green}-GG[dF]LRRVC(QSY‑7)[βAla]-NH2) [CP4]” has a Kcat [3] of 0.083 s⁻¹ and a Km ([3]; recombinant human enzyme, 50 mM Hepes pH 8, 25° C.) of 8 µM.

B1: Recombinant human NEP (neutral endopeptidase) enzyme (protein)
chain: YDDGICKSSDCIKSAARLIQNMDATTEPCTDFFKYACGGWLKRNVIPETSSRYGNFDILRDELEVVLKDVLQEPKTEDIVAVQKAKALYRSCINESAIDSRGGEPLLKLLPDIYGWPVATENWEQKYGASWTAEKAIAQLNSKYGKKVLINLFVGTDDKNSVNHVIHIDQPRLGLPSRDYYECTGIYKEACTAYVDFMISVARLIRQEERLPIDENQLALEMNKVMELEKEIANATAKPEDRNDPMLLYNKMTLAQIQNNFSLEINGKPFSWLNFTNEIMSTVNISITNEEDVVVYAPEYLTKLKPILTKYSARDLQNLMSWRFIMDLVSSLSRTYKESRNAFRKALYGTTSETATWRRCANYVNGNMENAVGRLYVEAAFAGESKHVVEDLIAQIREVFIQTLDDLTWMDAETKKRAEEKALAIKERIGYPDDIVSNDNKLNNEYLELNYKEDEYFENIIQNLKFSQSKQLKKLREKVDKDEWISGAAVVNAFYSSGRNQIVFPAGILQPPFFSAQQSNSLNYGGIGMVIGHEITHGFDDNGRNFNKDGDLVDWWTQQSASNFKEQSQCMVYQYGNFSWDLAGGQHLNGINTLGENIADNGGLGQAYRAYQNYIKKNGEEKLLPGLDLNHKQLFFLNFAQVWCGTYRPEYAVNSIKTDVHSPGNFRIIGTLQNSAEFSEAFHCRKNSYMNPEKKCRVW
For B1, the Kcat [4] was 0.083 s⁻¹, the Kcat/Km [4] was 10,500 M^-1 S^-1 and the Km [4] was 8 µM.
